Measured values from doi:10.1101/2025.04.24.648904 (bioRxiv, 2025).

Target: Hsp90 (Hsp82), full length (S. cerevisiae, UniProt P02829 1-709)
Assay: AUC

Chain of Hsp90 (Hsp82), full length (P02829 whole entry): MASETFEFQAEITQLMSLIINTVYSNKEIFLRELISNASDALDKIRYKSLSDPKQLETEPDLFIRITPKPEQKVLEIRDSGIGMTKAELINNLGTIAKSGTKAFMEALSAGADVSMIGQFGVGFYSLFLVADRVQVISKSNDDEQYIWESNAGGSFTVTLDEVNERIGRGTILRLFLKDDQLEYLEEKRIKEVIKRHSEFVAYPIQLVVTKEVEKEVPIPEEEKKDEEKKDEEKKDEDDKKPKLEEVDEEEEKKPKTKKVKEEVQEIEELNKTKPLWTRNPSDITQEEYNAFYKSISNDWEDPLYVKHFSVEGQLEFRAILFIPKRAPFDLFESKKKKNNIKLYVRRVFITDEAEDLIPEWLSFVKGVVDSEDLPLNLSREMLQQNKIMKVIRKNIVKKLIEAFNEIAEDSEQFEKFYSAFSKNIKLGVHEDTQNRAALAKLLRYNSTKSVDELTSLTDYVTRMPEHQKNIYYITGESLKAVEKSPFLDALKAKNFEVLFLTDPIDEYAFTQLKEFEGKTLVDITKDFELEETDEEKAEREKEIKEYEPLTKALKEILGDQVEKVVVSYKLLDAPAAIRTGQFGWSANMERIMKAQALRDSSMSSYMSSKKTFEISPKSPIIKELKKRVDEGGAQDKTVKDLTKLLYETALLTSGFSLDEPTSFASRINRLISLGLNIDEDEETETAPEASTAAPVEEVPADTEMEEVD

Kd: 510 nM
B1: Sgt1 (Suppressor of the G2 Allele of Skp1), full length (natural protein, S. cerevisiae, UniProt Q08446 1-395, looked up)
chain: MPVEKDLKTAYKALYDEKEPLKALHLYDEILKGSPTNLTALIFKAACLEKLYFGFSDWHSDATMENAKELLDKALMTAEGRGDRSKIGLVNFRYFVHFFNIKDYELAQSYFKKAKNLGYVDDTLPLWEDRLETKLNKKNKKQKDSTNKHTIKPVESIENRGDNNSSHSPISPLKIETAPQESPKFKIDWYQSSTSVTISLFTVNLPESKEQVNIYISPNDRRTLSISYQVPKSGSEFQYNAKLSHEVDPKAVSLKIFPKKLEITLSKIDSTQWKKLEEDILTESSRLSDEGKNSDSATRLLSAETASKERLSYPSSSKKKIDWSKLDIDEEADEEAGSADSFFQKLYAGADPDTKRAMMKSFIESNGTALSTDWEDVSKGTVKTSPPEGMEPKHW
modifications: Atto488 (maleimide) label where it is the labeled species in aUC
